From article PMC3192196 (Angewandte Chemie (International Ed. in English), 2011)

Experiments:
[1] = electronic absorption and fluorescence spectroscopy; format: physicochemical; conditions: for emission maximum / fluorescence lifetime: aqueous solution; for extinction coefficient: at absorbance maximum 776 nm; for absorbance maximum: electronic spectra; for quantum yield: in PBS
[2] = biological target: T1, PSMA (Homo sapiens, UniProt Q04609); test: fluorescence-based PSMA inhibition assay; format: biochemical
[3] = in vivo; conditions: SCID, mouse, PSMA− PC3-flu tumor
[4] = ex vivo biodistribution, normal tissues; conditions: for tissue uptake at 1 h / tissue uptake at 2 h / tissue uptake at 5 h / tissue uptake at 24 h: SCID, mouse
[5] = test system: PSMA+ PC3-PIP and PSMA− PC3-flu xenografts; test: sequential SPECT-CT and optical; format: in vivo, severe-combined immune-deficient (SCID) mice
[6] = test system: PSMA+ PC3-PIP xenografts; test: ex vivo biodistribution, PSMA+ PC3 PIP tumor; format: in vivo, severe-combined immune-deficient (SCID) mice; conditions: for PIP:flu uptake ratio: PSMA+ PIP to PSMA− flu tumor
[7] = ex vivo biodistribution, PSMA+ PC3 PIP tumor; format: in vivo, severe-combined immune-deficient (SCID) mice; conditions: SCID, mouse, PSMA+ PC3-PIP tumor
[8] = biological target: T1, PSMA; test: blocking of uptake with ZJ43; format: in vivo; conditions: blocking dose 50 mg/Kg ZJ43 (Figure S9)

T1 sequence (Q04609 whole entry): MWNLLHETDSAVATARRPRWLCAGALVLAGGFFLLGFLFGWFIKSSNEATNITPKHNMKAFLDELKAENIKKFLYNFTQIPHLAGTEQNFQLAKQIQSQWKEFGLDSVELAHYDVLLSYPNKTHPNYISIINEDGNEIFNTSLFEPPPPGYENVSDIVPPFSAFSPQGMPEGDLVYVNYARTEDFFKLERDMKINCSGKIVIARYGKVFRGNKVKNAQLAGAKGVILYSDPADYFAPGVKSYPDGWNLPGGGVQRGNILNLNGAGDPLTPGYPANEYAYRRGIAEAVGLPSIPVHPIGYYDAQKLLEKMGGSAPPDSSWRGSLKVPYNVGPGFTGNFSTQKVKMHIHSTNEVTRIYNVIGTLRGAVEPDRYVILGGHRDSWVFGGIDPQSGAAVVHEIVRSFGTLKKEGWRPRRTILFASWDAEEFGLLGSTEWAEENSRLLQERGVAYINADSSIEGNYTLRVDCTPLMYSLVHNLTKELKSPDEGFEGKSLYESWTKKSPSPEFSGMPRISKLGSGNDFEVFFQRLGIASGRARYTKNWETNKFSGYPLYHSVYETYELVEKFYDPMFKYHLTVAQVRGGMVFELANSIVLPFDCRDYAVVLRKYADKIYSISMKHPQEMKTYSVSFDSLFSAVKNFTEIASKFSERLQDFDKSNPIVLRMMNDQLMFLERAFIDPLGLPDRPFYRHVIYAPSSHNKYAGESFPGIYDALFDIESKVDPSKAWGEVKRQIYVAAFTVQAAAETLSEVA

Structure (SMILES): CC1(C)C(=CC=C2CCCC(C=CC3=[N+](CCCCS(=O)(=O)O)c4ccc(S(=O)(=O)[O-])cc4C3(C)C)=C2Oc2ccc(S(=O)(=O)O)cc2)N(CCCCCC(=O)NCCCC[C@H](NC(=O)CN2CCN(CC(=O)O)CCN(CC(=O)O)CCN(CC(=O)O)CC2)C(=O)N[C@@H](CCCCNC(=O)CCCCCCC(=O)NCCCC[C@H](NC(=O)N[C@@H](CCC(=O)O)C(=O)O)C(=O)O)C(=O)O)c2ccc(S(=O)(=O)O)cc21 (single isomer, unassigned) [[^113/^115In]1]
- emission maximum [1]: 792 nm
- fluorescence lifetime [1]: 483 psec
- extinction coefficient [1]: 181,000 M^−1cm^−1
- spectral properties of 1 versus [^113/^115In]1, in words ([1]; comparison of 1 and [^113/^115In]1): did not observe any significant changes in the spectral properties
- absorbance maximum [1]: 776 nm
- quantum yield [1]: ~ 8.9%
- PSMA inhibition, in words [2]: potent inhibitors of PSMA

Structure (SMILES): CC1(C)C(=CC=C2CCCC(C=CC3=[N+](CCCCS(=O)(=O)O)c4ccc(S(=O)(=O)[O-])cc4C3(C)C)=C2Oc2ccc(S(=O)(=O)O)cc2)N(CCCCCC(=O)NCCCC[C@H](NC(=O)CN2CCN(CC(=O)O)CCN(CC(=O)O)CCN(CC(=O)O)CC2)C(=O)N[C@@H](CCCCNC(=O)CCCCCCC(=O)NCCCC[C@H](NC(=O)N[C@@H](CCC(=O)O)C(=O)O)C(=O)O)C(=O)O)c2ccc(S(=O)(=O)O)cc21 (single isomer, unassigned) [[^111In]1, metal not drawn]
- tissue uptake at 1 h [3]: 2.1 ± 0.7 %ID/g
- tissue uptake at 2 h [3]: 2.1 ± 0.5 %ID/g
- tissue uptake at 5 h [3]: 1.9 ± 0.2 %ID/g
- tissue uptake at 24 h [3]: 2 ± 0.2 %ID/g
- tissues with highest uptake at 1 h ([4]; 1 h): The blood, spleen, gastrointestinal tract, kidney and bladder displayed the highest uptake at 1 h
- kidney clearance, in words ([4]; 1 h to 24 h): Steady clearance from the kidneys
- tissue uptake at 1 h ([4]; bladder): 4.1 ± 1.7 %ID/g
- tissue uptake at 2 h ([4]; bladder): 2.7 ± 1 %ID/g
- tissue uptake at 5 h ([4]; bladder): 1.1 ± 0.6 %ID/g
- tissue uptake at 24 h ([4]; bladder): 2 ± 0.5 %ID/g
- tissue uptake at 1 h ([4]; blood): 9.9 ± 5 %ID/g
- tissue uptake at 2 h ([4]; blood): 7.1 ± 1.2 %ID/g
- tissue uptake at 5 h ([4]; blood): 4.1 ± 0.8 %ID/g
- tissue uptake at 24 h ([4]; blood): 0.9 %ID/g
- tissue uptake at 1 h ([4]; heart): 3.3 ± 0.5 %ID/g
- tissue uptake at 2 h ([4]; heart): 1.8 ± 0.3 %ID/g
- tissue uptake at 5 h ([4]; heart): 1.8 ± 0.1 %ID/g
- tissue uptake at 24 h ([4]; heart): 0.8 ± 0.1 %ID/g
- tissue uptake at 1 h ([4]; kidney): 104 ± 9.4 %ID/g
- tissue uptake at 2 h ([4]; kidney): 97.1 ± 13 %ID/g
- tissue uptake at 5 h ([4]; kidney): 122 ± 21.6 %ID/g
- tissue uptake at 24 h ([4]; kidney): 48.1 ± 17.7 %ID/g
- tissue uptake at 1 h ([4]; large intestine): 1.5 ± 0.5 %ID/g
- tissue uptake at 2 h ([4]; large intestine): 1.3 ± 0.3 %ID/g
- tissue uptake at 5 h ([4]; large intestine): 0.8 ± 0.5 %ID/g
- tissue uptake at 24 h ([4]; large intestine): 2 ± 0.4 %ID/g
- tissue uptake at 1 h ([4]; liver): 2.4 ± 0.1 %ID/g
- tissue uptake at 2 h ([4]; liver): 2.2 %ID/g
- tissue uptake at 5 h ([4]; liver): 3.2 ± 1.2 %ID/g
- tissue uptake at 24 h ([4]; liver): 3.1 ± 0.4 %ID/g
- tissue uptake at 1 h ([4]; muscle): 1.2 ± 0.6 %ID/g
- tissue uptake at 2 h ([4]; muscle): 0.7 ± 0.2 %ID/g
- tissue uptake at 5 h ([4]; muscle): 0.9 ± 0.2 %ID/g
- tissue uptake at 24 h ([4]; muscle): 0.4 %ID/g
- tissue uptake at 1 h ([4]; pancreas): 2.1 ± 0.1 %ID/g
- tissue uptake at 2 h ([4]; pancreas): 1.3 ± 0.3 %ID/g
- tissue uptake at 5 h ([4]; pancreas): 2 ± 1 %ID/g
- tissue uptake at 24 h ([4]; pancreas): 1 ± 0.3 %ID/g
- tissue uptake at 1 h ([4]; small intestine): 1.8 ± 0.5 %ID/g
- tissue uptake at 2 h ([4]; small intestine): 1.5 ± 0.2 %ID/g
- tissue uptake at 5 h ([4]; small intestine): 1.6 ± 0.3 %ID/g
- tissue uptake at 24 h ([4]; small intestine): 2 ± 0.7 %ID/g
- tissue uptake at 1 h ([4]; spleen): 11.3 ± 3.7 %ID/g
- tissue uptake at 2 h ([4]; spleen): 6.8 ± 0.9 %ID/g
- tissue uptake at 5 h ([4]; spleen): 4.8 ± 2.4 %ID/g
- tissue uptake at 24 h ([4]; spleen): 8.2 ± 5.4 %ID/g
- tissue uptake at 1 h ([4]; stomach): 1.4 ± 0.3 %ID/g
- tissue uptake at 2 h ([4]; stomach): 1.2 ± 0.1 %ID/g
- tissue uptake at 5 h ([4]; stomach): 2.4 ± 1.8 %ID/g
- tissue uptake at 24 h ([4]; stomach): 1 ± 0.1 %ID/g
- radiotracer uptake on in vivo imaging ([5]; 37 MBq IV, imaged repeatedly over two days): Intense radiotracer uptake was seen only in the PSMA+ PIP tumors and in the kidneys
- tumor visualization by NIRF imaging ([5]; single injection of ~0.22 μg (0.1 nmol)): able to visualize tumor with NIRF imaging
- PIP:flu uptake ratio ([6]; 1h): 6.7
- PIP:flu uptake ratio ([6]; 2h): 6.3
- PIP:flu uptake ratio ([6]; 5h): 8.7
- PIP:flu uptake ratio ([6]; 24h): 7.4
- binding and accumulation in PSMA+ PC3-PIP xenografts, in words ([6]; biodistribution, up to 24 h): PSMA dependent binding in PSMA+ PC3-PIP xenografts with rapid accumulation at the tumor site that persisted throughout the course of the experiment
- tissue uptake at 1 h [7]: 13.9 ± 1.9 %ID/g
- tissue uptake at 2 h [7]: 13.3 ± 2.4 %ID/g
- tissue uptake at 5 h [7]: 16.4 ± 3.7 %ID/g
- tissue uptake at 24 h [7]: 14.6 ± 1.3 %ID/g
- blocking of uptake in PSMA+ PC3 PIP tumor and kidney by ZJ43 [8]: effective blocking in PSMA+ PC3 PIP tumor and kidney

Structure (SMILES): CC1(C)C(=CC=C2CCCC(C=CC3=[N+](CCCCS(=O)(=O)O)c4ccc(S(=O)(=O)[O-])cc4C3(C)C)=C2Oc2ccc(S(=O)(=O)O)cc2)N(CCCCCC(=O)NCCCC[C@H](NC(=O)CN2CCN(CC(=O)O)CCN(CC(=O)O)CCN(CC(=O)O)CC2)C(=O)N[C@@H](CCCCNC(=O)CCCCCCC(=O)NCCCC[C@H](NC(=O)N[C@@H](CCC(=O)O)C(=O)O)C(=O)O)C(=O)O)c2ccc(S(=O)(=O)O)cc21 (single isomer, unassigned) [Compound 1]
- emission maximum [1]: 792 nm
- fluorescence lifetime [1]: 420 psec
- extinction coefficient [1]: 181,000 M^−1cm^−1
- absorbance maximum [1]: 776 nm
- quantum yield [1]: ~ 8.9%
- PSMA inhibition, in words [2]: potent inhibitors of PSMA
